This note sets out measurements from paper doi:10.1101/415992.

The target of the assay is Mps1-1 kinetochores (budding yeast) (UniProt P40568). As to the kind of experiment: optical trap force-clamp flow assay.
Sequence of UniProt P40568 (P40568 whole entry, looked up): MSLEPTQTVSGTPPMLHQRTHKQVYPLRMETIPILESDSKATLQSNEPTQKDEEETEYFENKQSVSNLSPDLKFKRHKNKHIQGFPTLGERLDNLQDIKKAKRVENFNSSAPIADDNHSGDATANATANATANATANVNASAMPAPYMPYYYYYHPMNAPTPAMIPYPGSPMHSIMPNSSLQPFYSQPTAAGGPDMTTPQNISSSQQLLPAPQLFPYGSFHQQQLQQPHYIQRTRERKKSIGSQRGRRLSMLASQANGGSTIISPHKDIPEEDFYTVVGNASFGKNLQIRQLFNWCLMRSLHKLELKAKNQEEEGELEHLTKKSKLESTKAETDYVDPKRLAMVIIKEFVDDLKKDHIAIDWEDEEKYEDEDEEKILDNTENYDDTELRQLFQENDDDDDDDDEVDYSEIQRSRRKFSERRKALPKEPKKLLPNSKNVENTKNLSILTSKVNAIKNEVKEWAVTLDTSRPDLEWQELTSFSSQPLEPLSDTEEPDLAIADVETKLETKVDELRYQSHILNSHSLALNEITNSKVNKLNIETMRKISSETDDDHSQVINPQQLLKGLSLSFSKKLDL

Consider “dynamic microtubules (assembling and shortening tips of single, coverslip-anchored microtubules) (from UniProt Q6B856 1-445) (complex)”, for which the detachment rate (with 0.5 μM AurB*, 1.5 pN) amounted to 28.9 hr^-1; the detachment rate (with 0.5 μM AurB*, 5 pN) came to 7 hr^-1; the detachment rate (with 0.5 μM AurB*, ~1 pN) worked out at 4.6 hr^-1; the detachment rate (with 0.5 μM AurB*-KD, 1.5 pN) worked out at 10.4 hr^-1. In addition, the detachment rate (with 0.5 μM AurB*-KD, 5 pN) turned out to be 7 hr^-1 and the detachment rate (with 5 μM AurB*, ~1 pN) came out at 7.2 hr^-1.
